Experimental data: article PMC3424240, “Rbm15-Mkl1 Interacts with the Setd1b Histone H3-Lys4 Methyltransferase via a SPOC Domain That Is Required for Cytokine-Independent Proliferation” (PLoS ONE, 2012)

Biological target: T1, His-SPOC domain (aa 782–977 of Rbm15) (human, UniProt Q96T37 782-977)
T1 construct: cloned in the pBAD/His vector; also called His-tagged Rbm15 SPOC domain; source: E. coli, purified (Ni-NTA agarose), dialyzed against PBS
T1 sequence (looked up): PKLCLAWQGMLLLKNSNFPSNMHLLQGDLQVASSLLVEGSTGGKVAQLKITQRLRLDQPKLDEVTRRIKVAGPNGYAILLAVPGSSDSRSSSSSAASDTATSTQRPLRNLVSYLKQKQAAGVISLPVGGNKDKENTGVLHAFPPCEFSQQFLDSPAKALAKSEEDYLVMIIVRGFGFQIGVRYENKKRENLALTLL
Assay: pull-down; GST pull-down of purified proteins on glutathione-agarose; 20 mM Tris-HCl pH 8.0, 150 mM NaCl, 2 mM EDTA, 0.2% NP-40, 0.5% deoxycholate; 2 h, then beads 1 h; Western blotting and Coomassie staining
Conditions: both partners purified

binding result: binds
B1: GST-LSD (aa 542–628 of Setd1b) (domain or fragment, human, UniProt Q9UPS6 542-628, looked up)
chain: PLAPFGTNSQPGFRGPTPPSSRPSSTGLEDISPTPLPDSDEDEELDLGLGPRPPPEPGPPDPAGLLSQTAEVALDLVGDRTPTSEKM
notes: human Setd1b LSD domain, residues 542-628; cloned in the pGEX 4T vector; also called GST-Setd1b LSD domain; source: E. coli, purified
